In patent US7847064B2, “Methods and compositions for regulating gene expression in plant cells” (Donald Danforth Plant Science Center, priority 2004, dated 2010):

Key:
Box IIm1 element = assay: Electrophoretic mobility shift assay; type: binding; conditions: 100 ng purified protein, 32P-labeled Box IIm1 DNA probe
Description: The purified mutant proteins were then analyzed by SDS-PAGE to confirm that each protein was its expected size (FIG. 16(B)). To confirm that each of the mutant proteins bind to the DNA target, i.e., the Box II element and/or its operational derivatives, gel mobility shift assays were carried out with the purified recombinant proteins (FIG. 16(C)). The electrophoretic mobility shift assays were carried out essentially as described in Yin and Beachy (1995). 100 ng of proteins purified from the transformed E. coli were incubated with ^32P-labeled Box IIm1 DNA probe followed by electrophoresis in a 5% acrylamide gel (Yin et al., 1997) (FIG. 16(C)).

pBII-48Ca::GUS = assay: Transactivation of pBII-48Ca::GUS by RF2a and RF2a mutants in BY-2 protoplasts; type: cell-based, tobacco; conditions: co-transfected with pBII-48Ca::GUS, 24 hours after electroporation, normalized with GFP
Description: The relative activity of RF2a and the RF2a mutants (described in Example 8) was then measured. First, a chimeric promoter was developed with a single copy of the Box II element fused to the 5′ end of a minimal CaMV 35S promoter comprising nucleotides −48 to +8 (SEQ ID NO:66). The chimeric promoter was ligated to the uidA coding sequence to create the reporter pBII-48Ca::GUS.
To analyze the function of the several domains of RF2a, effectors were created by inserting coding sequences of RF2a or the mutants of RF2a (described in Example 8) downstream of the enhanced CaMV 35S promoter in the pMON999 vector (a gift from Monsanto Company, St. Louis, Mo.). The resultant constructs, p35S::RF2a, p35S::RF2a-ΔP, p35S::RF2a-ΔQ, p35S::RF2a-ΔPΔA, p35S::RF2a-ΔPΔQ and p35S::RF2a-3Δ, were co-transfected into BY-2 protoplasts with pBII-48Ca::GUS (FIG. 17(A)). Plasmid pCat-GFP, in which the GFP gene was driven by CaMV 35S promoter, was co-introduced to serve as an internal control. The following describes, in greater detail, the construction of these vectors and the methods employed in transfecting the same into BY-2 protoplasts.
Plasmids for protoplast transfection—The coding sequences for mutants of RF2a were released from pET28a-derived plasmids and cloned into the plant expression vector pMON999 (a gift from Monsanto Company, St. Louis, Mo.) to place each gene downstream of an enhanced CaMV 35S promoter, followed by a nopaline synthase terminator sequence. The resulting effector constructs were named p35S::RF2a, p35S::RF2a-ΔP, p35S::RF2a-ΔQ, p35S::RF2a-ΔPΔA, p35S::RF2a-ΔPΔQ and p35S::RF2a-3Δ. The reporter gene construct, pBII-48Ca::GUS, was built using PCR to introduce the Box II element into a minimal CaMV 35S promoter comprising nucleotides −48 to +8 with primers BII-48Ca 5′ (SEQ ID NO:53) (which contained the Box II element) and GUS 3′ (SEQ ID NO:36) using a p35S:GUS plasmid as template. The PCR product was restricted with HindIII and NcoI, and the resulting fragment was inserted into p35S::GUS to replace the original 35S promoter.
Transfection of tobacco BY-2 protoplasts—The protoplasts were isolated from tobacco cell line BY-2 as described by Watanabe et al. (1987). Approximately one million protoplasts were transfected by electroporation with 20 μg of effector construct DNA, 15 μg of herring sperm DNA, 2.5 μg of reporter gene construct DNA, and 15 μg of pCat-GFP DNA. In samples with reporter gene alone, the total amount of DNA was adjusted by adding 20 μg of herring sperm carrier DNA. The electroporation parameters used were 300 V and 250 microfarads with the Bio-Rad electroporation system (Bio-Rad Laboratories, Hercules, Calif.). Protoplast samples were cultured in Murashige and Skoog medium with 0.4 M mannitol, pH 5.8, at 28° C. The protoplasts were collected 24 hours after electroporation.

[1] = test system: Nicotiana tabacum cv. Xanthi NN; assay: Phenotype of transgenic tobacco plants overexpressing RF2a or RF2a mutants; type: in vivo; conditions: for phenotype of transgenic tobacco plants: CaMV 35S promoter driven, T1 generation, greenhouse; for cross-sections of the stem of transgenic plants: two-month old tobacco, toluidine blue O
From the text: (Yin et al., 1997; Petruccelli et al., 2001). […] Fifteen or more independent transgenic tobacco lines were developed with the constructs described below through Agrobacterium-mediated transformation.
Plasmids for Agrobacterium-mediated transformation—The fusion genes described above relating to the plant expression constructs comprising RF2a deletion mutants were released from pMON999-derived plasmids using NotI (blunted) and cloned into the binary vector pGA-E::GUS (Petruccelli et al., 2001) using the blunt HindIII site (downstream of a CaMV 35S promoter sequence). The final plasmids were named pGA-E::GUS/P-35S::ΔP, pGA-E::GUS/P-35S::ΔQ, pGA-E::GUS/P-35S::ΔPΔA and pGA-E::GUS/P-35S::ΔPΔQ. A plasmid encoding full-length RF2a, p35S::RF2a, was also constructed using the methods described herein.
Tobacco transformation—the plasmids described above were introduced into Agrobacterium tumefaciens strain LBA4404 and used for tobacco transformation. Leaf discs from Nicotiana tabacum cv. Xanthi NN were transformed with the various plasmids following the protocol of Horsch et al. (1988). At least 15 independent transgenic lines were produced with each gene construct. Transgenic plants were self-fertilized, and T1 seeds were collected. The T1 seeds were germinated on Murashige and Skoog medium (Murashige and Skoog, 1962) with kanamycin (100 mg/L) selection, and Kan^r seedlings were grown in a greenhouse for observation.
The phenotype caused by 35S::RF2a-ΔPΔA was similar to, but less severe than, the phenotype caused by 35S::RF2a-3Δ. […] (FIG. 19(C)).

Row | Molecule | binding in gel mobility shift assay (Box IIm1 element) | activation function (relative GUS activity) (pBII-48Ca::GUS) | phenotype of transgenic tobacco plants [1] | phenotype of transgenic tobacco plants ([1]; listed as 35S::RF2a-ΔPΔA) | independent transgenic lines with stunting, curved leaves and delayed flowering ([1]; T1 generation tobacco) | internodal elongation of transgenic plants ([1]; transgenic tobacco) | cross-sections of the stem of transgenic plants [1]
1 | RF2a-ΔPΔA: RF2a mutant, proline-rich and acidic domains removed, SEQ ID NO:70 (protein, This sequence was artificially derived and/or created by the inventors.) MSSSAAAHGARPKHQHSLSMDESMSIKAEELVGASPGTEGMSSAEAKKAVSAVKLAELALVDPKRAKRIWANRQSAARSKERKMRYIAELERKVQTLQTEATTLSAQLALLQRDTSGLTTENSELKLRLQTMEQQVHLQDALNDTLKSEVQRLKVATGQMANGGGMMMNFGGMPHQFGGNQQMFQNNQAMQSMLAAHQLQQLQLHPQAQQQQVLHPQHQQQQPLHPLQAQQLQQAARDLKMKSPMGGQSQWGDGKSGSSGN | bind to the Box IIm1 element | dropped to near basal level | severe stunting phenotype | mild to severe stunting with curved leaves and substantial delay in flowering times | 11 of 15 | strongly repressed | xylem of stunted plants was not uniformly lignified and that phloem development was altered
2 | RF2a-3Δ: RF2a mutant, glutamine-rich, proline-rich and acidic domains removed, SEQ ID NO:72 (protein, This sequence was artificially derived and/or created by the inventors.) MSSSAAAHGARPKHQHSLSMDESMSIKAEELVGASPGTEGMSSAEAKKAVSAVKLAELALVDPKRAKRIWANRQSAARSKERKMRYIAELERKVQTLQTEATTLSAQLALLQRDTSGLTTENSELKLRLQTMEQQVHLQDALNDTLKSEVQRLKVATGQMANGGGMMMNFGGMPHQ | bind to the Box IIm1 element | dropped to near basal level | severe stunting phenotype | – | – | – | xylem of stunted plants was not uniformly lignified and that phloem development was altered
3 | RF2a-ΔPΔQ: RF2a mutant, proline- and glutamine-rich domains removed, SEQ ID NO:71 (protein, This sequence was artificially derived and/or created by the inventors.) MGHRRAHSEILSLPEDLDLCAAGGGDGPSLSDENDEELFSMFLDVEKLNSTCGASSEAEAESSSAAAHGARPKHQHSLSMDESMSIKAEELVGASPGTEGMSSAEAKKAVSAVKLAELALVDPKRAKRIWANRQSAARSKERKMRYIAELERKVQTLQTEATTLSAQLALLQRDTSGLTTENSELKLRLQTMEQQVHLQDALNDTLKSEVQRLKVATGQMANGGGMMMNFGGMPHQ | bind to the Box IIm1 element | greater than that of full-length RF2a | did not exhibit abnormal phenotypes | – | – | – | –
